{"source": "the supplement of paper PMC9112550", "about": "“Optimization of the antimicrobial peptide Bac7 by deep mutational scanning” (BMC Biology, 2022);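 further: peptides expressed intracellularly from a pBAD plasmid library in pooled LB shake-flask culture, induced with 0.3% L-arabinose, DNA abundance read by NGS, three biological replicates, DESeq2 with apeglm shrinkage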"}
{"test_system": "Escherichia coli TOP10", "experiment": "shrunken log2 fold change of peptide-encoding DNA abundance (4.5 h post-induction vs induction); higher = less antimicrobial activity (less host growth inhibition)", "conditions": "time post-induction: 4.5 h; library: site-saturation at positions 5, 18, 19, 20"}
{"sequence": "RRIRYRPPRLPRPRPRPHCCPRP", "shrunken log2 fold change": -0.0599}
{"sequence": "RRIRSRPPRLPRPRPRPSPNPRP", "shrunken log2 fold change": 0.0503}
{"sequence": "RRIRNRPPRLPRPRPRPYWMPRP", "shrunken log2 fold change": -0.26}
{"sequence": "RRIRKRPPRLPRPRPRPDNYPRP", "shrunken log2 fold change": -0.153}
{"sequence": "RRIRMRPPRLPRPRPRPFIDPRP", "shrunken log2 fold change": -0.438}
{"sequence": "RRIRMRPPRLPRPRPRPCIIPRP", "shrunken log2 fold change": -0.798}
{"sequence": "RRIRCRPPRLPRPRPRPKNIPRP", "shrunken log2 fold change": -0.607}
{"sequence": "RRIRIRPPRLPRPRPRPSWMPRP", "shrunken log2 fold change": -0.562}
{"sequence": "RRIRMRPPRLPRPRPRPHQPPRP", "shrunken log2 fold change": 0.0274}
{"sequence": "RRIRGRPPRLPRPRPRPQWIPRP", "shrunken log2 fold change": 0.518}
{"sequence": "RRIRKRPPRLPRPRPRPVRVPRP", "shrunken log2 fold change": 0.591}
{"sequence": "RRIRGRPPRLPRPRPRPGAFPRP", "shrunken log2 fold change": 0.773}
{"sequence": "RRIRQRPPRLPRPRPRPMPKPRP", "shrunken log2 fold change": 0.128}
{"sequence": "RRIRGRPPRLPRPRPRPGHKPRP", "shrunken log2 fold change": 0.173}
{"sequence": "RRIRFRPPRLPRPRPRPDFGPRP", "shrunken log2 fold change": 0.0422}
{"sequence": "RRIRIRPPRLPRPRPRPSQSPRP", "shrunken log2 fold change": -0.0979}
{"sequence": "RRIRFRPPRLPRPRPRPDEGPRP", "shrunken log2 fold change": 0.101}
{"sequence": "RRIRARPPRLPRPRPRPYPHPRP", "shrunken log2 fold change": -0.0654}
{"sequence": "RRIRHRPPRLPRPRPRPVMNPRP", "shrunken log2 fold change": -0.0175}
{"sequence": "RRIRVRPPRLPRPRPRPQIEPRP", "shrunken log2 fold change": -0.0116}
{"sequence": "RRIRQRPPRLPRPRPRPLPRPRP", "shrunken log2 fold change": 0.724}
{"sequence": "RRIRVRPPRLPRPRPRPYDQPRP", "shrunken log2 fold change": -0.192}
{"sequence": "RRIRHRPPRLPRPRPRPCFVPRP", "shrunken log2 fold change": 0.0216}
{"sequence": "RRIRCRPPRLPRPRPRPKVSPRP", "shrunken log2 fold change": 0.0213}
{"sequence": "RRIRNRPPRLPRPRPRPRKWPRP", "shrunken log2 fold change": 0.416}
{"sequence": "RRIRRRPPRLPRPRPRPSRCPRP", "shrunken log2 fold change": -0.0309}
{"sequence": "RRIRVRPPRLPRPRPRPINDPRP", "shrunken log2 fold change": 0.0664}
{"sequence": "RRIRNRPPRLPRPRPRPSPTPRP", "shrunken log2 fold change": 0.156}
{"sequence": "RRIRPRPPRLPRPRPRPNSRPRP", "shrunken log2 fold change": -0.1}
{"sequence": "RRIRERPPRLPRPRPRPDTIPRP", "shrunken log2 fold change": -0.06}
{"sequence": "RRIRHRPPRLPRPRPRPWCRPRP", "shrunken log2 fold change": -0.352}
{"sequence": "RRIRRRPPRLPRPRPRPFAMPRP", "shrunken log2 fold change": 0.0854}
{"sequence": "RRIRNRPPRLPRPRPRPMACPRP", "shrunken log2 fold change": -0.109}
{"sequence": "RRIRDRPPRLPRPRPRPRVQPRP", "shrunken log2 fold change": -0.183}
{"sequence": "RRIRMRPPRLPRPRPRPDPIPRP", "shrunken log2 fold change": -0.249}
{"sequence": "RRIRKRPPRLPRPRPRPMEQPRP", "shrunken log2 fold change": 0.033}
{"sequence": "RRIRLRPPRLPRPRPRPPKLPRP", "shrunken log2 fold change": 0.252}
{"sequence": "RRIRIRPPRLPRPRPRPANHPRP", "shrunken log2 fold change": -0.528}
{"sequence": "RRIRYRPPRLPRPRPRPYEKPRP", "shrunken log2 fold change": -0.117}
{"sequence": "RRIRKRPPRLPRPRPRPKVLPRP", "shrunken log2 fold change": 0.0605}
{"sequence": "RRIRNRPPRLPRPRPRPVERPRP", "shrunken log2 fold change": 0.265}
{"sequence": "RRIRRRPPRLPRPRPRPPYTPRP", "shrunken log2 fold change": 0.00247}
{"sequence": "RRIRWRPPRLPRPRPRPGTQPRP", "shrunken log2 fold change": 0.216}
{"sequence": "RRIRARPPRLPRPRPRPGDCPRP", "shrunken log2 fold change": 0.366}
{"sequence": "RRIRSRPPRLPRPRPRPRQKPRP", "shrunken log2 fold change": 0.29}
{"sequence": "RRIRRRPPRLPRPRPRPASQPRP", "shrunken log2 fold change": 0.0789}
{"sequence": "RRIRWRPPRLPRPRPRPEWFPRP", "shrunken log2 fold change": 0.395}
{"sequence": "RRIRPRPPRLPRPRPRPNLWPRP", "shrunken log2 fold change": -0.0151}
{"sequence": "RRIRKRPPRLPRPRPRPDYYPRP", "shrunken log2 fold change": 0.0521}
{"sequence": "RRIRRRPPRLPRPRPRPNDRPRP", "shrunken log2 fold change": 0.205}
{"sequence": "RRIRKRPPRLPRPRPRPIIHPRP", "shrunken log2 fold change": -0.0792}
{"sequence": "RRIRYRPPRLPRPRPRPTMAPRP", "shrunken log2 fold change": 0.12}
{"sequence": "RRIRCRPPRLPRPRPRPPEPPRP", "shrunken log2 fold change": 0.457}
{"sequence": "RRIRERPPRLPRPRPRPCRSPRP", "shrunken log2 fold change": -0.0928}
{"sequence": "RRIRPRPPRLPRPRPRPEFIPRP", "shrunken log2 fold change": -0.117}
{"sequence": "RRIRYRPPRLPRPRPRPFDQPRP", "shrunken log2 fold change": -0.401}
{"sequence": "RRIRFRPPRLPRPRPRPTVSPRP", "shrunken log2 fold change": -0.00542}
{"sequence": "RRIRLRPPRLPRPRPRPNDIPRP", "shrunken log2 fold change": -0.723}
{"sequence": "RRIRCRPPRLPRPRPRPDYFPRP", "shrunken log2 fold change": -0.248}
{"sequence": "RRIRTRPPRLPRPRPRPLGAPRP", "shrunken log2 fold change": 0.0945}
{"sequence": "RRIRLRPPRLPRPRPRPMCFPRP", "shrunken log2 fold change": -0.332}
{"sequence": "RRIRQRPPRLPRPRPRPWFCPRP", "shrunken log2 fold change": -0.282}
{"sequence": "RRIRPRPPRLPRPRPRPGSCPRP", "shrunken log2 fold change": 0.111}
{"sequence": "RRIRGRPPRLPRPRPRPFEMPRP", "shrunken log2 fold change": 0.396}
{"sequence": "RRIRTRPPRLPRPRPRPKWSPRP", "shrunken log2 fold change": -0.227}
{"sequence": "RRIRVRPPRLPRPRPRPRKIPRP", "shrunken log2 fold change": -0.0978}
{"sequence": "RRIRWRPPRLPRPRPRPRFTPRP", "shrunken log2 fold change": 0.307}
{"sequence": "RRIRYRPPRLPRPRPRPHMWPRP", "shrunken log2 fold change": -0.621}
{"sequence": "RRIRWRPPRLPRPRPRPQSSPRP", "shrunken log2 fold change": -0.276}
{"sequence": "RRIRGRPPRLPRPRPRPRNSPRP", "shrunken log2 fold change": 0.114}
{"sequence": "RRIRRRPPRLPRPRPRPAWEPRP", "shrunken log2 fold change": 0.301}
{"sequence": "RRIRARPPRLPRPRPRPSWDPRP", "shrunken log2 fold change": 0.244}
{"sequence": "RRIRSRPPRLPRPRPRPCNQPRP", "shrunken log2 fold change": -0.391}
{"sequence": "RRIRVRPPRLPRPRPRPVMCPRP", "shrunken log2 fold change": -0.0631}
{"sequence": "RRIRIRPPRLPRPRPRPQRCPRP", "shrunken log2 fold change": -0.0109}
{"sequence": "RRIRNRPPRLPRPRPRPMDKPRP", "shrunken log2 fold change": 0.00658}
{"sequence": "RRIRERPPRLPRPRPRPDACPRP", "shrunken log2 fold change": -0.0198}
{"sequence": "RRIRIRPPRLPRPRPRPFYSPRP", "shrunken log2 fold change": -0.476}
{"sequence": "RRIRKRPPRLPRPRPRPIYSPRP", "shrunken log2 fold change": -0.41}
{"sequence": "RRIRHRPPRLPRPRPRPPTRPRP", "shrunken log2 fold change": 0.429}
{"sequence": "RRIRTRPPRLPRPRPRPFSKPRP", "shrunken log2 fold change": 0.0087}
{"sequence": "RRIRDRPPRLPRPRPRPVIRPRP", "shrunken log2 fold change": -0.19}
{"sequence": "RRIRFRPPRLPRPRPRPQIQPRP", "shrunken log2 fold change": -0.42}
{"sequence": "RRIRMRPPRLPRPRPRPRMNPRP", "shrunken log2 fold change": -0.138}
{"sequence": "RRIRSRPPRLPRPRPRPWTIPRP", "shrunken log2 fold change": -0.133}
{"sequence": "RRIRTRPPRLPRPRPRPPMPPRP", "shrunken log2 fold change": 0.144}
{"sequence": "RRIRVRPPRLPRPRPRPFSPPRP", "shrunken log2 fold change": -0.363}
{"sequence": "RRIRKRPPRLPRPRPRPHYYPRP", "shrunken log2 fold change": -0.0852}
{"sequence": "RRIRYRPPRLPRPRPRPVKMPRP", "shrunken log2 fold change": -0.392}
{"sequence": "RRIRMRPPRLPRPRPRPPAYPRP", "shrunken log2 fold change": 0.608}
{"sequence": "RRIRARPPRLPRPRPRPEWFPRP", "shrunken log2 fold change": 0.0641}
{"sequence": "RRIRQRPPRLPRPRPRPTQHPRP", "shrunken log2 fold change": 0.195}
{"sequence": "RRIRNRPPRLPRPRPRPKEFPRP", "shrunken log2 fold change": -0.012}
{"sequence": "RRIRIRPPRLPRPRPRPNKSPRP", "shrunken log2 fold change": -0.919}
{"sequence": "RRIRVRPPRLPRPRPRPEIKPRP", "shrunken log2 fold change": -0.107}
{"sequence": "RRIRDRPPRLPRPRPRPFSGPRP", "shrunken log2 fold change": -0.214}
{"sequence": "RRIRGRPPRLPRPRPRPQRMPRP", "shrunken log2 fold change": 0.307}
{"sequence": "RRIRGRPPRLPRPRPRPHPRPRP", "shrunken log2 fold change": 0.839}
{"sequence": "RRIRPRPPRLPRPRPRPSFPPRP", "shrunken log2 fold change": -0.0649}
{"sequence": "RRIRERPPRLPRPRPRPLFSPRP", "shrunken log2 fold change": -0.364}
{"sequence": "RRIRSRPPRLPRPRPRPYKNPRP", "shrunken log2 fold change": -0.399}
{"sequence": "RRIRWRPPRLPRPRPRPRVHPRP", "shrunken log2 fold change": 0.341}
{"sequence": "RRIRMRPPRLPRPRPRPNCEPRP", "shrunken log2 fold change": 0.247}
{"sequence": "RRIRWRPPRLPRPRPRPLFYPRP", "shrunken log2 fold change": -0.427}
{"sequence": "RRIRRRPPRLPRPRPRPDMKPRP", "shrunken log2 fold change": -0.124}
{"sequence": "RRIRDRPPRLPRPRPRPPKCPRP", "shrunken log2 fold change": 0.0933}
{"sequence": "RRIRSRPPRLPRPRPRPTQIPRP", "shrunken log2 fold change": 0.048}
{"sequence": "RRIRIRPPRLPRPRPRPYGIPRP", "shrunken log2 fold change": -0.329}
{"sequence": "RRIRYRPPRLPRPRPRPNENPRP", "shrunken log2 fold change": -0.744}
